# Biological target: freshly polymerised microtubules (Microtubule Binding Protein Spin-Down Assay kit, Cytoskeleton, Inc.)
# Assay: co-sedimentation; microtubule spin-down: 2.5 μg protein, 30 min at room temperature with freshly polymerised microtubules (equivalent of 2 μM tubulin dimer), 20 μM Taxol, 10 mM MgCl2 and 4 mM GDP or GTP; 100,000 g for 40 min through a 60% glycerol cushion; supernatant and pellet on Coomassie gel
# freshly polymerised microtubules (Microtubule Binding Protein Spin-Down Assay kit, Cytoskeleton, Inc.), sequence (P68363 whole entry, chain 1 of 2): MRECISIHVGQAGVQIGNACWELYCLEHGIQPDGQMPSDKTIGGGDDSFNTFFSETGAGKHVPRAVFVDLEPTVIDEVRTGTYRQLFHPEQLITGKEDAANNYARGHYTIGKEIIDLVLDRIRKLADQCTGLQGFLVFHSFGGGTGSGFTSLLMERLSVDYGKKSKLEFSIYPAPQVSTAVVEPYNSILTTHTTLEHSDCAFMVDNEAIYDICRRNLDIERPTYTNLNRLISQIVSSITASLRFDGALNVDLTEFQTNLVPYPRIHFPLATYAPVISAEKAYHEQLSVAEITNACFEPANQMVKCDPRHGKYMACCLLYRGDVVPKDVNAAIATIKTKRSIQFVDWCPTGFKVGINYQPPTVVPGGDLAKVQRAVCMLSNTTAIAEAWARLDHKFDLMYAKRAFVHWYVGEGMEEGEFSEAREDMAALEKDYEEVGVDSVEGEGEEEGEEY
# freshly polymerised microtubules (Microtubule Binding Protein Spin-Down Assay kit, Cytoskeleton, Inc.), sequence (A8K068 whole entry, chain 2 of 2, further chain): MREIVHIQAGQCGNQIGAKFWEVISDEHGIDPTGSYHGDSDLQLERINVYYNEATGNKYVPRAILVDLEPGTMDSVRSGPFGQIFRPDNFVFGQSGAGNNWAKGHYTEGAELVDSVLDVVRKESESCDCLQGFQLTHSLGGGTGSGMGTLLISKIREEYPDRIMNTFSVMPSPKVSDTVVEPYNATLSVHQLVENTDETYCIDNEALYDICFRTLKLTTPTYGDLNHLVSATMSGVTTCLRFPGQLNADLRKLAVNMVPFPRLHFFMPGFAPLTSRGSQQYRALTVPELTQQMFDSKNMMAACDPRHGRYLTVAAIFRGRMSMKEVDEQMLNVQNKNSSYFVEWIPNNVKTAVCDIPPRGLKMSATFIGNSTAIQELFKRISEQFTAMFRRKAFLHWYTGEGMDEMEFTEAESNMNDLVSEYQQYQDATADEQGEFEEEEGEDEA
substance,measurement,value
N-terminal His-tagged recombinant T. brucei ARL6 (natural protein),"percent of the protein in the insoluble fraction with microtubules, with GDP",36%
same,"percent of the protein in the insoluble fraction with microtubules, with GTP",20%
